The record followed here is article PMC12170345 (Nature Structural & Molecular Biology, 2025).

Data set [1] deals with the molecule itself. Description: single-molecule fluorescence intensity counting (TIRF microscopy); GFP-tagged protein diluted in PBS and immobilised on a plasma-cleaned coverslip; intensities compared with single GFP and GFP–EB3 dimers in adjacent chambers.
Data set [2] concerns the target TOGARAM1 (mouse, full length, GFP- or mCherry-tagged) (mouse, UniProt Q6A070 1-1776). The data set is described as follows: cell-based or functional assay.
Data set [3] concerns the target T1, CCDC66 (full length, GFP- or mCherry-tagged) (human, UniProt A2RUB6 1-948).
T1 construct: CCDC66, human, full-length protein; source: HEK293T, transiently transfected; purified (StrepTactin beads) for in vitro assays; in lysate for coimmunoprecipitation; not shown: GFP or mCherry, N-terminal, kept
T1 sequence (looked up): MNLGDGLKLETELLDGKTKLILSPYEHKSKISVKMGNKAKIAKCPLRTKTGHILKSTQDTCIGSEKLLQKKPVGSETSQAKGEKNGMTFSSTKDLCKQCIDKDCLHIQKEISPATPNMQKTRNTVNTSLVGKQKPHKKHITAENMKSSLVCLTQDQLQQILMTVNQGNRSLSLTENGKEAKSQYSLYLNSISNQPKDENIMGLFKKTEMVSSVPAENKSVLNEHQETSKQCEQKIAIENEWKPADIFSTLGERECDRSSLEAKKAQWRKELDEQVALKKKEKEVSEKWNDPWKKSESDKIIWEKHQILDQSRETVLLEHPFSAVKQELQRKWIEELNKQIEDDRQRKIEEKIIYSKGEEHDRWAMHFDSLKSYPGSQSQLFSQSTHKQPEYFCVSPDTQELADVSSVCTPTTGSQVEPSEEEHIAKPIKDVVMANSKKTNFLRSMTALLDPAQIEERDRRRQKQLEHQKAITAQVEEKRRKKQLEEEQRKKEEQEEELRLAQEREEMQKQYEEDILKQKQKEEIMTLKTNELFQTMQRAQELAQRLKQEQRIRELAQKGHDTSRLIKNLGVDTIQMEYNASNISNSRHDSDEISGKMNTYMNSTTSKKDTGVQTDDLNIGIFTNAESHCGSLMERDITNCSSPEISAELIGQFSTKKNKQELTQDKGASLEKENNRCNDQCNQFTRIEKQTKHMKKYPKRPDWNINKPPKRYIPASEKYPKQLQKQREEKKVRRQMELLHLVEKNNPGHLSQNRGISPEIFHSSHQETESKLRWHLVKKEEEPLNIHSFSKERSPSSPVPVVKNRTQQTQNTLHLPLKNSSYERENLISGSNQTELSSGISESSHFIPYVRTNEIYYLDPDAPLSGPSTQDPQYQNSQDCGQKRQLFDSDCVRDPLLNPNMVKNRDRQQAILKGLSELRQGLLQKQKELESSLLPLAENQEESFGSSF
The data set is described as follows: in vitro reconstitution on dynamic microtubules (TIRF microscopy); recruitment of one fluorescent protein to MTs by another that is on the MTs; 15 µM tubulin, with or without 20 nM EB3; MRB80, 50 mM KCl, 1 mM GTP, 30 °C. The note with it: both partners purified.

Sequence of TOGARAM1 (mouse, full length, GFP- or mCherry-tagged) (Q6A070 whole entry): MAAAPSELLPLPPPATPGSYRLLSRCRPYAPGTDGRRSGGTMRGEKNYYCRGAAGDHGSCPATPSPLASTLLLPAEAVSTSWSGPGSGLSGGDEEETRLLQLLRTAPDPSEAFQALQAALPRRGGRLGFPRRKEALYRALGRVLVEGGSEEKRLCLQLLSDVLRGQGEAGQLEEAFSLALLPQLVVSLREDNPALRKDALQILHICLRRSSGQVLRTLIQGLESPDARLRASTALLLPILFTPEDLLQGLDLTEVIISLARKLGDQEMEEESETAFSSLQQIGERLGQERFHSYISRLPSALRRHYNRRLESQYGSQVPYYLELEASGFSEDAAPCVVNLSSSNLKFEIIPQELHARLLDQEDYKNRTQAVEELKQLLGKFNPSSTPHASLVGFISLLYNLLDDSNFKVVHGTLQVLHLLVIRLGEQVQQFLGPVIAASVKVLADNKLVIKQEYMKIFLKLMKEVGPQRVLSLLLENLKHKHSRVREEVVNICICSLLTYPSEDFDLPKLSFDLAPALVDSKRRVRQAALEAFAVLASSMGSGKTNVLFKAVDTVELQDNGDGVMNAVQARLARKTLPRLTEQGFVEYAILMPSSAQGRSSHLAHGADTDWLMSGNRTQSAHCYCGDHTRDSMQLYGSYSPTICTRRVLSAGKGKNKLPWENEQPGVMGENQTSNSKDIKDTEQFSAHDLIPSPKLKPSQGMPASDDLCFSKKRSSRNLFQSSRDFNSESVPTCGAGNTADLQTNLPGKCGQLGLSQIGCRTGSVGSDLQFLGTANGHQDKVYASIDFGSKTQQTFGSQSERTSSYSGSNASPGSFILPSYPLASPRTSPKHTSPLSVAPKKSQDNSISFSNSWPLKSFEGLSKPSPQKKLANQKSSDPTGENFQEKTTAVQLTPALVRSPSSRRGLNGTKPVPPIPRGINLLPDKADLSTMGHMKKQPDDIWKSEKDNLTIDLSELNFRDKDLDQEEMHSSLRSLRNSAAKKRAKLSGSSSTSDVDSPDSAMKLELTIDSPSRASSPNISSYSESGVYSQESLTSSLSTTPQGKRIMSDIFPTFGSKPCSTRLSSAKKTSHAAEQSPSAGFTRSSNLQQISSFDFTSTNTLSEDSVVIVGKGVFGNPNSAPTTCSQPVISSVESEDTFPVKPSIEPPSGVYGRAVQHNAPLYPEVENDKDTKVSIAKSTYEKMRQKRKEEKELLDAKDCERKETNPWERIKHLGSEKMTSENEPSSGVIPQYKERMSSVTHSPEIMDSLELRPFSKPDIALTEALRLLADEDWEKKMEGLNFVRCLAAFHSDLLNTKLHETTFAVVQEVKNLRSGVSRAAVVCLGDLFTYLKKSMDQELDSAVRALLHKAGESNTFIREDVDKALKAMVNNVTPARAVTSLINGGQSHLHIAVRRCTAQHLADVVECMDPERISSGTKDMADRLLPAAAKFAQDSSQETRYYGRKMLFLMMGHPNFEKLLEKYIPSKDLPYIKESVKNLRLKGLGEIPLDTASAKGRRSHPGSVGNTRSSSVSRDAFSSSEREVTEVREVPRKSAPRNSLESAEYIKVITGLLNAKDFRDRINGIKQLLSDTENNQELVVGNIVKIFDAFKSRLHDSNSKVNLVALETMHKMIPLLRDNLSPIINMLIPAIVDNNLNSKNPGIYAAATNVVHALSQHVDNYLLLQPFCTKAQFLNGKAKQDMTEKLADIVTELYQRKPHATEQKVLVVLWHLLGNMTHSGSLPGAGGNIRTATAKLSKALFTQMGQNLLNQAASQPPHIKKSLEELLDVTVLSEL

B1: ARMC9 (full length, GFP- or mCherry-tagged) (natural protein, human, UniProt Q7Z3E5 1-818, looked up)
chain: MGDILAHESELLGLVKEYLDFAEFEDTLKTFSKECKIKGKPLCKTVGGSFRDSKSLTIQKDLVAAFDNGDQKVFFDLWEEHISSSIRDGDSFAQKLEFYLHIHFAIYLLKYSVGRPDKEELDEKISYFKTYLETKGAALSQTTEFLPFYALPFVPNPMVHPSFKELFQDSWTPELKLKLIKFLALISKASNTPKLLTIYKENGQSNKEILQQLHQQLVEAERRSVTYLKRYNKIQADYHNLIGVTAELVDSLEATVSGKMITPEYLQSVCVRLFSNQMRQSLAHSVDFTRPGTASTMLRASLAPVKLKDVPLLPSLDYEKLKKDLILGSDRLKAFLLQALRWRLTTSHPGEQRETVLQAYISNDLLDCYSHNQRSVLQLLHSTSDVVRQYMARLINAFASLAEGRLYLAQNTKVLQMLEGRLKEEDKDIITRENVLGALQKFSLRRPLQTAMIQDGLIFWLVDVLKDPDCLSDYTLEYSVALLMNLCLRSTGKNMCAKVAGLVLKVLSDLLGHENHEIQPYVNGALYSILSVPSIREEARAMGMEDILRCFIKEGNAEMIRQIEFIIKQLNSEELPDGVLESDDDEDEDDEEDHDIMEADLDKDELIQPQLGELSGEKLLTTEYLGIMTNTGKTRRKGLANVQWSGDEPLQRPVTPGGHRNGYPVVEDQHTPPQTAQHARNGHPQALPAAHEAVYREGKPSTPESCVSSSSAIIAKPGEWLPRGRQEEPRPAPTGTPRQPREAPQDPGNGVTTRECASAFTCKPRAPCTPEMLDWNPPKAKASVLAPLFSSCGPQQASRPGSTASSTRGLPSSQSHRK
notes: ARMC9, human, full-length protein; Dimer by single-molecule counting; multimers by SEC; also called GFP–ARMC9; GFP-ARMC9 FL; source: HEK293T, transiently transfected; purified (StrepTactin beads) for in vitro assays; in lysate for coimmunoprecipitation; not shown: GFP or mCherry, N-terminal, kept
For orientation: stoichiometry N means the number of molecules, sites or subunits per partner or assembly. Take B1: the “stoichiometry N” value in data set [1] is 2. Further, the “rescue activity of TOGARAM1 on MTs in the presence of ARMC9” value in data set [2] is around 2 fold.

B2: CEP104 (full length, GFP- or mCherry-tagged) (natural protein, human, UniProt O60308 1-925, looked up)
chain: MPHKIGFVVVSSSGHEDGFSARELMIHAPTVSGWRSPRFCQFPQEIVLQMVERCRIRKLQLLAHQYMISSKIEFYISESLPEYFAPYQAERFRRLGYVSLCDNEKTGCKARELKSVYVDAVGQFLKLIFHQNHVNKYNIYNQVALVAINIIGDPADFSDESNTASREKLIDHYLGHNSEDPALEGTYARKSDYISPLDDLAFDMYQDPEVAQIIRKLDERKREAVQKERYDYAKKLKQAIADLQKVGERLGRYEVEKRCAVEKEDYDLAKEKKQQMEQYRAEVYEQLELHSLLDAELMRRPFDLPLQPLARSGSPCHQKPMPSLPQLEERGTENQFAEPFLQEKPSSYSLTISPQHSAVDPLLPATDPHPKINAESLPYDERPLPAIRKHYGEAVVEPEMSNADISDARRGGMLGEPEPLTEKALREASSAIDVLGETLVAEAYCKTWSYREDALLALSKKLMEMPVGTPKEDLKNTLRASVFLVRRAIKDIVTSVFQASLKLLKMIITQYIPKHKLSKLETAHCVERTIPVLLTRTGDSSARLRVTAANFIQEMALFKEVKSLQIIPSYLVQPLKANSSVHLAMSQMGLLARLLKDLGTGSSGFTIDNVMKFSVSALEHRVYEVRETAVRIILDMYRQHQASILEYLPPDDSNTRRNILYKTIFEGFAKIDGRATDAEMRARRKAATEEAEKQKKEEIKALQGQLAALKEIQAEVQEKESDAVKPKNQDIQGGKAAPAEALGIPDEHYLDNLCIFCGERSESFTEEGLDLHYWKHCLMLTRCDHCKQVVEISSLTEHLLTECDKKDGFGKCYRCSEAVFKEELPRHIKHKDCNPAKPEKLANRCPLCHENFSPGEEAWKAHLMGPAGCTMNLRKTHILQKAPALQPGKSSAVAASGPLGSKAGSKIPTPKGGLSKSSSRTYAKR
notes: CEP104, human, full-length protein; Cloned into pTT5-C1-based expression vectors (vector: Addgene 52355); Dimer by single-molecule counting; also called GFP–CEP104; mCherry–CEP104; source: HEK293T, transiently transfected; purified (StrepTactin beads) for in vitro assays; in lysate for coimmunoprecipitation; not shown: GFP or mCherry, N-terminal, kept
As to B2, the binding result in data set [3] is “binds”. For the same molecule, in data set [1], the “stoichiometry N” value was found to be 2.
